In the RNAGym collection of RNA variant scans (doi:10.7554/elife.90254) one finds self-cleavage data, which are given here for 167 variants.

Sequences and labels used below:
B1: LINE1-full (parent)
chain: UACGUAGGUGGUUUUCCCCUGAUAGUGCUAAGGGGGCCUGGAAGUUUGGACUGGGCAGAGCUCAACACAGCGUGGCAAAGUGGCUGUGGCUAGACUGCCUCUCUGGAUUCCUCGUCACUCAGCAGGGCAUCUCUGAGAGAAAUGCC

In the series the parent is B1. The experiment in a line: self-cleavage, relative activity (ratio to wild type); higher = more cleavage; in vitro, sequencing; the parent is a self-cleaving ribozyme.
For G7U U132C, the self-cleavage was 1.23.
The figure for G7U A142G is 1.15; for U5C U46A it is 1.29; for U9A A129U it is 1.43.
Under A6G G86A stands 0.31; under A6U U9A, 1.56.
The figure for A6U U9C is 0.36; for A6U C66U it is 0.09.
A6C U134C: the self-cleavage is 0.61.
The figure for A6G G139U is 0.96.
Regarding A6G A57U, the self-cleavage is 0.42.
Under A6G A57G stands 0.64; under G7C U81A, 2.25.
With G8U A50G, the self-cleavage came out at 1.19.
The figure for A6G G32C is 0.65; for G7U G54A it is 0.94; for G7U G54C it is 0.49.
The figure for A6G C111U is 1.
The figure for G7A U45A is 0.53.
On to G8A U134C, for which the self-cleavage turned out to be 1.55.
Under A6G G55U stands 0.41; under U9A A94G, 0.27; under G7U C16U, 1.5.
The figure for U5C U26C is 1.23; for A6G G11A it is 2.36.
The figure for A6G G11C is 0.31; for G8A C37U it is 1.31.
Regarding A6U A124U, the self-cleavage is 1.51.
The figure for A6C A129U is 0.77.
Under A6U A43U stands 0.89; under A6U A43G, 1.01.
In the case of U5G A138G, the self-cleavage was 0.2.
The figure for G7U A124G is 1.19; for A6G U26A it is 0.68; for A6G U13C it is 0.93.
As to G7U G70A, the self-cleavage is 0.2.
As to G8A U14C, the self-cleavage is 1.32.
Under G7A G75A stands 0.95; under U5C U104C, 1.11; under A6C A121U, 1.18.
With A6U A59G, the self-cleavage turned out to be 0.11.
A6U A59C: the self-cleavage turned out to be 0.74.
Under G8U U13C stands 2.33.
As for G7U A136G, the self-cleavage was 1.86.
Consider U5C U91G, for which the self-cleavage was 0.
Regarding U5G U119C, the self-cleavage came to 1.02.
Take A6U G72A: the self-cleavage is 1.2.
As to A6U A64C, the self-cleavage was found to be 0.68.
Regarding G8C A138G, the self-cleavage amounted to 1.44.
The figure for U5C U81C is 0.8.
Under A6G A43G stands 1.35; under G8A A140G, 1.55.
The figure for U9A A24U is 1.01.
In the case of G7A U130C, the self-cleavage came to 0.94.
As to A6U U119C, the self-cleavage is 0.75.
As to G7A U9C, the self-cleavage was found to be 0.68.
With G7A U102C, the self-cleavage worked out at 1.77.
Under A6G U115C stands 0.7; under A6G U130A, 1.18.
Turning to A6G G137U, the self-cleavage was 0.81.
As for G8U U62A, the self-cleavage was found to be 0.12.
The figure for G8C A129G is 1.31; for U9A A138G it is 0.87.
Under A6U U132C stands 1.33; under U9A C51A, 1.47; under A6G U81C, 1.78.
In the case of G8C A50G, the self-cleavage is 1.14.
Consider G8A A67C, for which the self-cleavage turned out to be 0.
Under U5C U87A stands 0.15; under A6G A24U, 1.21.
Under A6G A24G stands 1.21; under G8A U143C, 1.45.
As for A6G A42G, the self-cleavage was 1.15.
As for A6G A42U, the self-cleavage stood at 0.82.
Under G8U U143A stands 2.02; under G8A U20C, 1.59.
In the case of G7C U13C, the self-cleavage worked out at 2.07.
Consider A6U A117G, for which the self-cleavage amounted to 0.3.
Take A6U A117U: the self-cleavage stood at 1.53.
The figure for A6U U109A is 0.99.
Under A6G A64U stands 0.87.
Take G7A U100C: the self-cleavage worked out at 2.45.
The figure for G7A C71A is 0.29; for G7U U13A it is 0.71; for G7U U13C it is 0.99.
Under A6U G36A stands 0.88.
Under A6G A141G stands 1.03; under G7A U23A, 0.85; under G7C U73C, 0.74.
For A6G U9C, the self-cleavage was 1.16.
Under G8C G75A stands 1.2; under G8A G97A, 0.41; under U5G A64C, 0.19.
On to A6G U132C, for which the self-cleavage is 0.9.
Regarding U9A A136G, the self-cleavage stood at 1.29.
The figure for A6G G40A is 0.84; for G8A A141G it is 1.1; for A6U U115C it is 1.28.
Under U5C U143C stands 0.11; under U9A C61U, 0.02; under G8A U46A, 2.02.
Under G7U G40A stands 1.47.
In the case of U9A A42U, the self-cleavage is 1.09.
As for U9A A42C, the self-cleavage was found to be 0.56.
Under U9A A42G stands 1.14; under G7A C18U, 1.59.
The figure for U9A C18G is 1.1; for U9A C18A it is 1.09; for A6G U134A it is 0.52.
Under A6G U134C stands 0.85.
For the variant A6U U104C, the self-cleavage amounted to 1.02.
The figure for A6U C133A is 0.49; for G7U U112C it is 1.15.
Under G7U U112A stands 1.06.
The figure for G7U U73C is 1.55; for G7A U91C it is 0.34.
As to G7U U52C, the self-cleavage was 1.1.
The figure for G7A C56U is 0.17; for G8A U62C it is 0.05.
The figure for G8A U62G is 0; for A6U U47C it is 0.8; for A6U U12G it is 1.21.
On to A6U U12A, for which the self-cleavage turned out to be 0.84.
The figure for U9A A57U is 0.19; for U9A A57G it is 0.98.
Regarding A6U U85C, the self-cleavage was found to be 0.4.
The figure for A6G A77G is 1.18; for A6G A77U it is 0.92.
The figure for A6U U26A is 0.87; for A6U U26C it is 0.94.
On to U5C U134A, for which the self-cleavage was 0.62.
On to U5C U134C, for which the self-cleavage was determined as 0.33.
Turning to A6U U134A, the self-cleavage was 1.28.
With G8C A140G, the self-cleavage was determined as 2.03.
Regarding A6C U100C, the self-cleavage was determined as 0.66.
In the case of G7A U115C, the self-cleavage turned out to be 1.21.
Under U5C U96A stands 0.12; under U5C U96C, 0.26; under G8A A78G, 2.03.
The figure for G7A A30U is 0.92; for G8A A50G it is 0.85.
Under U5C U109A stands 0.74; under A6G U87A, 0.17.
Regarding G8A A59G, the self-cleavage was 0.16.
For the variant A6G G83A, the self-cleavage was 0.26.
Under G7C U52A stands 1.32.
Take A6U C18U: the self-cleavage was determined as 0.84.
Regarding A6G U73A, the self-cleavage came to 1.11.
The figure for U5C U52G is 1.23; for U5C U52C it is 1.23; for U5C U52A it is 1.02.
The figure for G7A A142G is 1.59; for G7C it is 1.4; for G7U it is 1.35.
The figure for G7A is 1.08; for A6U A24G it is 1.13.
Regarding U9A A117U, the self-cleavage worked out at 1.11.
On to U9A A117G, for which the self-cleavage worked out at 0.96.
As to U9A A77U, the self-cleavage was determined as 0.85.
As to A6G U143A, the self-cleavage is 0.89.
The figure for U5G A59G is 0.19.
Under A6G U47A stands 0.91.
As to A6G U47C, the self-cleavage stood at 0.53.
The figure for U9A A92U is 0.73.
As for G7U A65G, the self-cleavage was determined as 0.13.
On to G7U A65U, for which the self-cleavage was 0.17.
Under A6U A136G stands 1.33.
